Consider eight molecules from US20250000976A1 (NATIONAL RESEARCH COUNCIL OF CANADA, published 2025).

Numbering of substitutions follows the chain as printed.

In test [1] the target is T1, hBCMA-ECD-FC5VHH (human, UniProt Q02223 1-54, biotinylated in vivo ; biotinylated in vivo on the tag of the carrier part, which is not in the letters).
T1 construct: Made in HEK-293 cells, monomeric SEC fraction; The methods say about 500 RU captured on an SA chip; the results say immobilised on a CM5 chip; also called hBCMA-FC5; human BCMA-ECD; not shown: FC5 VHH carrier, any linker, and the His and biotinylation tags
T1 sequence: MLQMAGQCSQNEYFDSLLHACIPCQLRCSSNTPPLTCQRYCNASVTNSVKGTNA
The test can be described thus: SPR. In general terms: Surface plasmon resonance follows binding to a sensor surface in real time, without labels.

For test [2], the target named is T1, hBCMA-ECD-FC5VHH. The test can be described thus: SPR (Biacore T200), VHH 20-500 nM over BCMA-ECD surface, 25 C. How it is done:
For surface Plasmon resonance, 15 selected VHHs were passed though size exclusion columns, Superdex 75 (GE Healthcare), respectively, in 10 mM HEPES, pH 7.4, containing 150 mM NaCl, 3 mM EDTA, monomeric sdAb fractions were collected and protein concentrations were determined by measuring absorbance at 280 nm (A280). Analysis were performed with Biacore T200 instrument (GE Healthcare). All measurements were carried out at 25° C. in 10 mM HEPES, pH 7.4, containing 150 mM NaCl, 3 mM EDTA and 0.005% surfactant P20 (GE Healthcare). Approximately 500 RUs of the recombinant monomeric BCMA-ECD (obtained after SEC purification of the BCMA-ECD-FC5VHH) were captured on SA sensor chip (GE Healthcare) at a flow rate of 5 uL/min. Various concentration of the monomeric VHHs (20-500 nM) were injected over BCMA-ECD surface, respectively using an SA surface as a reference at a flow rate of 40 μL/min. Surfaces were generated by washing with running buffer. Data were analysed with BIAevaluation 4.1 software.
The monomeric fraction of all 15 VHHs were used for SPR experiment where the human BCMA-ECD or mouse BCMA was immobilized onto the CM5 dextran chip and various VHH concentration (20-500 nM) were passed over the sensor chip.

B1: hBCMA-2C3 (VHH)
VHH: QVKLEESGGGLVQTGDSLRLACTISGRATDHFVMAWFRRAPGKEREYVATRVWSGGSPYYLDSAKGRFAIAIDNAKNTAYLQMNNLKPEDTAVYYCAATKDIMSRSYDYWGLGTQVTVSS
modifications: single biotin on the C-terminal AviTag
notes: Variant of E7 with the same CDRs; also called VHH #2; not shown: C-terminal His tag and AviTag biotinylation signal from pMRO vector
As to B1, the binding result with hBCMA-ECD-FC5VHH [1] was “binds”.

B2: hBCMA-2F10 (VHH)
VHH: QVQLVESGGGLVQSGNSLRLSCSISGHTTKNFVMAWFRRAPGKERAIVATRVWSGGSPWYSESAKGRFTISIDDARNTAYLQMNNLKPEDTAVYYCAATKDIMSRGYVYWGLGTQVTVSS
modifications: single biotin on the C-terminal AviTag
notes: not shown: C-terminal His tag and AviTag biotinylation signal from pMRO vector
By Kd is commonly meant the equilibrium constant for the complex coming apart. High values mean lower affinity, low ones higher affinity. In general, koff refers to the first-order rate constant of dissociation. What is called kon is the rate constant with which the complex forms. A low value points to slower complex formation. In the test with hBCMA-ECD-FC5VHH [2], B2 yielded a Kd of 216 pM, an off-rate (koff) of 0.00091 s⁻¹ and an on-rate constant (kon) of 4.22e+06 M⁻¹ s⁻¹.

B3: hBCMA-F2 (VHH)
VHH: QVKLEESGGGLVKPGGSLRLSCGASGNSFGAYNMGWYRQAPGKQRELVAAISSTGNTFYRDSVRGRFTVSRDNAKSTMSLQMERLKPEDTAVYLCNGAPWGDDPVKVWSWGQGTQVTVSS
modifications: single biotin on the C-terminal AviTag
notes: as for B2
For the molecule B3, in the test with hBCMA-ECD-FC5VHH [2], the affinity, expressed as Kd, was 68.3 pM; the off-rate (koff) came to 0.000349 s⁻¹; the kon is 5.11e+06 M⁻¹ s⁻¹.

B4: hBCMA-3F2 (VHH)
VHH: QVQLVESGGRLVQTGDSLRLTCEISGHTSNQFVLAWFRRPPGKEREVVATRFWGGGSPYYSDSVRGRFAIAIDDAKNTAYLQMSSLKPEDTAVYYCAATKDILSRGYDYWGQGTQVTVSS
modifications: single biotin on the C-terminal AviTag
notes: as for B2
Regarding B4, in the test with hBCMA-ECD-FC5VHH [2], the dissociation constant (Kd) is 631 pM, the koff worked out at 0.00253 s⁻¹ and the kon came to 4.01e+06 M⁻¹ s⁻¹.

B5: hBCMA-H1 (VHH)
VHH: QVQLVESGGGLVQPGGSLRLSCAASGSGFGTHVMGWYRQAPGKPRELVAAISSAGSTFYRDSVKGRFTVSRDNAKNTMYLQMDRLKPEDTAVYYCNGAPWADEPVKVWNWGQGTQVTVSS
modifications: single biotin on the C-terminal AviTag
notes: as for B2
Consider B5, for which, in the test with hBCMA-ECD-FC5VHH [2], binding was characterised by a dissociation constant (Kd) of 152 pM, the koff amounted to 0.000462 s⁻¹ and the association rate constant (kon) is 3.05e+06 M⁻¹ s⁻¹.

B6: hBCMA-D2 (VHH)
VHH: B5 VHH with G28I, H32Y, V33N, P44Q, S56N, P87Y, Y94N, A101G, E103A, P104L
modifications: single biotin on the C-terminal AviTag
notes: as for B2
In the test with hBCMA-ECD-FC5VHH [2], B6 returned an equilibrium dissociation constant (Kd) of 403 pM, a koff of 0.000978 s⁻¹ and a kon of 2.42e+06 M⁻¹ s⁻¹.

B7: hBCMA-VcMRo1(V1/V6) (VHH)
VHH: EVQLQQSGGGLVQAGESLTISCAVFGDPITVATMGWYRQAPGKLRELVAAISSAGSTFYRDSVRGRFTVSRDNAKSTMYLQMDRLKVEDTAVYSCNGAPWGDAPVKVWTWGEGTQVTVSS
modifications: single biotin on the C-terminal AviTag
notes: as for B2
As for B7, in the test with hBCMA-ECD-FC5VHH [2], the equilibrium dissociation constant (Kd) worked out at 303 pM, the dissociation rate constant (koff) is 0.000262 s⁻¹ and the kon came to 867000 M⁻¹ s⁻¹.

B8: hBCMA-B5 (VHH)
VHH: QVKLEESGGGLVQPGGSLRLSCAASGSIFGTYNMGWYRQAPGKQRELVAAISSAGNTFYRDSVKGRFTVSRDNAKNTVYLQMDRLKYEDTAVYNCNGAPWADAEVKVYNWGQGTQVTVSS
modifications: single biotin on the C-terminal AviTag
notes: as for B2
Turning to B8, in the test with hBCMA-ECD-FC5VHH [2], binding was characterised by a dissociation constant (Kd) of 220 pM, the off-rate constant (koff) turned out to be 0.00237 s⁻¹ and the kon was found to be 1.08e+07 M⁻¹ s⁻¹.
